Laboratory results taken from patent publication US7993849B2.

Assays:
human MMP-1 (human) = human MMP-1 (human) (UniProt P03956)
rat MMP-13 (rat) = rat MMP-13 (rat) (UniProt P23097)

Sequence of rat TIMP-1 (P30120 24-217 limits assumed): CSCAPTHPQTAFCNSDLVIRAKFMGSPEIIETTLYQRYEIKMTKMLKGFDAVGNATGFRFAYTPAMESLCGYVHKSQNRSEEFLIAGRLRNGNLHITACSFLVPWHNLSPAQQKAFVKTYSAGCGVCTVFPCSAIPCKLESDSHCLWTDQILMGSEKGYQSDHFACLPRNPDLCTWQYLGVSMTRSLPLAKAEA

human TIMP-1
MMP-1 activity on fluorogenic peptide substrate (% MMP-1 activity) (human MMP-1 (human)): 27

rat TIMP-1
MMP-13 activity on fluorogenic peptide substrate (% MMP-13 activity) (rat MMP-13 (rat)): 20
